Measured values published in the supplement of paper PMC9170038.

Tested on: K4 kissing-loop RNA reporter
Test: apparent KD of K4 kissing-loop reporter; higher = weaker reporter binding
Conditions: Eterna round: R107
Procedure: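 RNA-MaP round R107: designed RNA switches with theophylline, tryptophan, arginine or FMN aptamers are transcribed on-chip within common flanks. They are titrated with a labelled K4 kissing-loop RNA reporter in RNA-MaP buffer (100 mM Tris pH 7.5, 80 mM KCl, 4 mM MgCl2), without ligand or with the indicated ligand. Median apparent KD per design.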

[1] = input ligand: theophylline 20 uM
[2] = input ligand: tryptophan 2.4 mM
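Note: bound reporter read as fluorescence of individual clusters on recovered sequencing chips by microscopy, with normalized cluster intensities fitted with a binding model.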

| Sequence | apparent KD of K4 kissing-loop reporter (input ligand: FMN 200 uM) [nM] | apparent KD of K4 kissing-loop reporter (input ligand: arginine 13.2 mM) [nM] | apparent KD of K4 kissing-loop reporter (input ligand: none) [nM] | apparent KD of K4 kissing-loop reporter [1] [nM] | apparent KD of K4 kissing-loop reporter [2] [nM] |
| --- | --- | --- | --- | --- | --- |
| UUACUACCCAGUGAUGUUGGGUAGCGGCGGCGAGGACCGGUACGGCCGCCACUCGGCGCACGGGAGUGAUGUUCCUGGGAAUAUA [Same State Tryptophan A GF 10] | 281 | 187 | 375 | 709 | 254 |
| UUAGAGAUCUCAGGAUAUCAGUGAUGUUGUGAUCCAGAUCUGAGAUAGAAUUCUAUCUCAGAUCAAUGAGAAGGGAGAUCUCAUU [AK4.3 Exc FMN B] | 721 | 1200 | 1490 | 878 | 1090 |
| UUAGAUCAAAGAUCAGUCUUAUCAAGAGCACGAGGACCGGUACGGCCGCCACUCGAGUGAUGUUCGAGAGCUCUUGUGACAAAUU [AK2 EXC Tryptophan A] | 148 | 129 | 157 | 154 | 219 |
| UUAGAUGAUUCAUCAAGAUUGAUGAGCAAACGAGGACCGGUACGGCCGCCACUCGAGUGAUGUUCGAGAAGCUCAUCAAUCAAUU [AK4.2 EXC Tryptophan A] | 166 | 120 | 139 | 127 | 370 |
| UUAGCAGUAUACUGCAAGACCUAUACUGAUACCAGAGUCAAUUGACUCCCUUGGCAGCGGAUCGAGUGAUGUUCGUAAGGUCAUU [AK4.2 SS Theophylline A] | 743 | 647 | 955 | 792 | 685 |
| UUAGGAGUGGAAGGAUAUCCUGGUGUGGGUGAUGUUAGUGAUGUUGAAGGUGCAGUGAUGUUGCGCGGAGAAGGUCCGGUGUUGA [BDazzled - #6 - Exc. FMN B] | 344 | 341 | 367 | 546 | 319 |
| UUAGGGAUCUCGGCCGCCACUCGUGGGAAAUGGGCCUCAGGGAUAUAGUGAUGUUAUGUAAAGAAGAGGACCGGGAGAAGGAAGG [ExTryptoB.Di] | 451 | 364 | 476 |  | 155 |
| UUAGUCUAGAGAAGGAGCGAGUGAUGUUCGCAUGAUCUCAUGAUAUCAUGAGAUCGAAAUCCUCAGGUAGGUCGCUCUAGACAUU [AK6 Exc Arginine B] | 493 | 372 | 534 | 424 | 545 |
| UUAGUCUAGAGAGGAUAUCAGUGAUGUUGAUAUCAAGAUCAUAGAUAGAAUUCUAUCUAUGAUCAAUGAGAAGGCUCUAGACAUU [AK1 Exc FMN B] | 746 | 141 | 161 | 155 | 163 |
| UUAUAUAAUUAGUCUUUUUUAACAUUAAGUCAGGAUAUCGUAUAUUCGAGAAGGGACACAUGCUAGUGAUGUUAGCUAUUUCUUU [JR_ExcFMNA_Sub017] | 32.4 | 54.7 | 30.7 | 50.1 | 31.5 |
| UUAUAUUUUAUAUUUAGUAGAGCUCUCACUCGAGGACCGGUACGGCCGCCACUCGAGUGAUGUUCGAGUGGGAGAGCUCUACAUU [AK3.2 EXC Tryptophan A] | 118 | 104 | 99.8 | 116 | 315 |
| UUAUCUAUAUUCGAUACCAGUACCCUUUGUGUUGAUCCUUUUAUCAGUGAUGUUGAUGUGUACCCUUGGCAGCGGGUAUGGGUUU [KL-XTheo-B16] | 384 | 370 | 425 | 556 | 279 |
| UUCAGGUGUUCGGCCGCCACUCCAGUGAUGUUGGAGUGGCUUCACAAGGACCAGGACAAUGUAAGGAGGACCGGGAAUAUCUCAG [Vequleat] | 130 | 105 | 136 | 128 | 118 |
| UUCAGGUGUUCGGCCGCCACUCCAGUGAUGUUGGAGUGGCUUCACAAGGGCCAGGACAAUGUAAGGAGGACCGGGAAUAUCUCAG [Onisle] | 97.9 | 96.1 | 132 | 77.3 | 111 |
| UUCCAGUGAUGUUGGUAUCUGAUAAGGGAAGGAGCGCGGAUUAACGCAGGUAGGUCGCCCAAGUAAUAAAUGUUUAUUAAUUGAU [Default title] | 183 | 193 | 201 | 161 | 188 |
| UUCUACGAGUGAUGUUCGUAGUGUAAUAGUUAGGAUAUCGUUUUUUCGAGAAGGAACUUCGAAGUGAUACGAAAGUAUCGCUUCG [FMN A 11] | 122 | 117 | 126 | 132 | 136 |
| UUGACCUACUCAGGAUAUCCGCAGUGAUGUUGCGGUUGGCCUGAGCGACAUGAAAAUCUUACUACAGGAGAAGGGAGAGGGUUAC [Anraerce] | 106 | 79.8 | 134 | 88.5 | 96.9 |
| UUGAGGGAGAAUUAUAGUGAUGUUAUAAAGAAGGAUAUCCAAAGAAGGAGAAGGUCUAAGAGGGAAGGGAGGGAGGGAGGGAGGG [ExFMNA.C] | 380 | 131 | 281 | 97.1 | 202 |
